Data: article PMC2668526 (Bioorganic & medicinal chemistry, 2008)
Where “and” joins values, the source holds several entries; their conditions need not be identical. Equal entries are not always repeated.

Columns and labels:
Assay in all cases: purified protein, by the assay type
Settings in all cases: other: O2 consumption, 5.0 mM ascorbate, pH 6.0, 37 °C
[1] = substrate: CC(Cc1ccccc1)C(=O)NCC(=O)O
[2] = substrate: CCc1ccc(C(=O)NCC(=O)O)cc1
[3] = substrate: Nc1ccc(C(=O)NCC(=O)O)cc1
[4] = substrate: Nc1ccccc1C(=O)NCC(=O)O
[5] = substrate: O=C(O)CNC(=O)/C=C/c1ccccc1
[6] = substrate: O=C(O)CNC(=O)C1CC1c1ccccc1
[7] = substrate: O=C(O)CNC(=O)CCCCCCCc1ccccc1
[8] = substrate: O=C(O)CNC(=O)CCc1ccccc1
[9] = substrate: O=C(O)CNC(=O)CNC(=O)CNC(=O)c1ccccc1
[10] = substrate: O=C(O)CNC(=O)Cc1ccccc1
[11] = substrate: O=C(O)CNC(=O)OCc1ccccc1
[12] = substrate: O=C(O)CNC(=O)SCc1ccccc1
[13] = substrate: O=C(O)CNC(=O)[C@@H]1CCC(=O)N1
[14] = substrate: O=C(O)CNC(=O)c1ccc(Br)cc1
[15] = substrate: O=C(O)CNC(=O)c1ccc(Cl)cc1
[16] = substrate: O=C(O)CNC(=O)c1ccc(O)cc1
[17] = substrate: O=C(O)CNC(=O)c1ccc([N+](=O)[O-])cc1
[18] = substrate: O=C(O)CNC(=O)c1ccccc1
[19] = substrate: O=C(O)CNC(=O)c1ccccc1I
[20] = substrate: O=C(O)CNC(=O)c1cccnc1
[21] = substrate: O=C(O)CNC(=O)c1cccs1

B1: rat PAM (Rattus norvegicus) (protein)
chain: FKETTRSFSNECLGTIGPVTPLDASDFALDIRMPGVTPKESDTYFCMSMRLPVDEEAFVIDFKPRASMDTVHHMLLFGCNMPSSTGSYWFCDEGTCTDKANILYAWARNAPPTRLPKGVGFRVGGETGSKYFVLQVHYGDISAFRDNHKDCSGVSVHLTRVPQPLIAGMYLMMSVDTVIPPGEKVVNADISCQYKMYPMHVFAYRVHTHHLGKVVSGYRVRNGQWTLIGRQNPQLPQAFYPVEHPVDVTFGDILAARCVFTGEGRTEATHIGGTSSDEMCNLYIMYYMEAKYALSFMTCTKNVAPDMFRTIPAEANIPIPVKPDMVMMHGHHKEAENKEKSALMQQPKQGEEEVLEQDFHVEEELDWPGVYLLPGQVSGVALDSKNNLVIFHRGDHVWDGNSFDSKFVYQQRGLGPIEEDTILVIDPNNAEILQSSGKNLFYLPHGLSIDTDGNYWVTDVALHQVFKLDPHSKEGPLLILGRSMQPGSDQNHFCQPTDVAVEPSTGAVFVSDGYCNSRIVQFSPSGKFVTQWGEESSGSSPRPGQFSVPHSLALVPHLDQLCVADRENGRIQCFKTDTKEFVREIKHASFGRNVFAISYIPGFLFAVNGKPYFGDQEPVQGFVMNFSSGEIIDVFKPVRKHFDMPHDIVASEDGTVYIGDAHTNTVWKFTLTEKMEHRSV
Km [1]: 4.1 ± 0.3 mM | kcat [1]: 18 ± 0.9 s⁻¹ | kcat/Km [1]: 4300 ± 100 M⁻¹ s⁻¹ | Km [2]: 1.2 ± 0.2 mM | kcat [2]: 3.6 ± 0.3 s⁻¹ | kcat/Km [2]: 3100 ± 500 M⁻¹ s⁻¹ | Km [3]: 2.6 ± 0.2 mM | kcat [3]: 5.6 ± 0.2 s⁻¹ | kcat/Km [3]: 2200 ± 100 M⁻¹ s⁻¹ | Km [4]: 1.4 ± 0.1 mM | kcat [4]: 4.2 ± 0.1 s⁻¹ | kcat/Km [4]: 2900 ± 100 M⁻¹ s⁻¹ | Km [5]: 0.23 ± 0.02 mM | kcat [5]: 8.4 ± 0.3 s⁻¹ | kcat/Km [5]: 36000 ± 3000 M⁻¹ s⁻¹ | Km [6]: 0.90 ± 0.07 mM | kcat [6]: 10 ± 0.3 s⁻¹ | kcat/Km [6]: 11000 ± 700 M⁻¹ s⁻¹ | Km [7]: 0.10 ± 0.009 0.064 ± 0.006 mM | kcat [7]: 8 ± 0.3 s⁻¹ | kcat/Km [7]: 76000 ± 4000 M⁻¹ s⁻¹ | Km [8]: 0.94 ± 0.1 0.55 ± 0.039 mM | kcat [8]: 9.9 ± 0.4 s⁻¹ | kcat/Km [8]: 11000 ± 600 M⁻¹ s⁻¹ | Km [9]: 0.31 ± 0.06 mM | kcat [9]: 8.8 ± 1.3 s⁻¹ | kcat/Km [9]: 29000 ± 2000 M⁻¹ s⁻¹ | Km [10]: 0.16 ± 0.005 mM | kcat [10]: 7.4 s⁻¹ | kcat/Km [10]: 46000 M⁻¹ s⁻¹ | Km [11]: 0.59 ± 0.02 mM | Km [12]: 0.059 ± 0.0070 mM | kcat [12]: 0.69 ± 0.022 s⁻¹ | kcat/Km [12]: 12000 ± 1400 M⁻¹ s⁻¹ | Km [13]: 0.3 mM and 0.31 ± 0.03 mM | Km [14]: 0.52 ± 0.06 mM | kcat/Km [14]: 4900 ± 400 M⁻¹ s⁻¹ | Km [15]: 0.62 ± 0.04 mM | kcat [15]: 4.1 ± 0.1 s⁻¹ | kcat/Km [15]: 6600 ± 200 M⁻¹ s⁻¹ | Km [16]: 1.7 ± 0.1 mM | kcat [16]: 5.8 ± 0.1 s⁻¹ | kcat/Km [16]: 3500 ± 200 M⁻¹ s⁻¹ | Km [17]: 0.47 ± 0.01 mM | kcat [17]: 4.2 ± 0.04 s⁻¹ | kcat/Km [17]: 8900 ± 200 M⁻¹ s⁻¹ | Km [18]: 1.3 ± 0.04 mM | kcat [18]: 8.2 ± 0.08 s⁻¹ | kcat/Km [18]: 6200 ± 100 M⁻¹ s⁻¹ | Km [19]: 3.4 ± 0.4 mM | kcat [19]: 3.1 ± 0.1 s⁻¹ | kcat/Km [19]: 910 ± 70 M⁻¹ s⁻¹ | Km [20]: 1.9 ± 0.1 mM | kcat [20]: 8 ± 0.2 s⁻¹ | kcat/Km [20]: 4200 ± 200 M⁻¹ s⁻¹ | Km [21]: 1.6 ± 0.1 mM | kcat/Km [21]: 6000 ± 300 M⁻¹ s⁻¹
